In patent US20110112279A1 (Genentech, published 2011):

B1: human STOP-1 short form (L94-K243) with C-terminal His tag, baculovirus expressed (ligand, not shown: small tags and cut ends)
chain: LRESFEESWTPNYKQCSWSSLNYGIDLGKIAECTFTKMRSNSALRVLFSGSLRLKCRNACCQRWYFTFNGAECSGPLPIEAIIYLDQGSPEMNSTINIHRTSSVEGLCEGIGAGLVDVAIWVGTCSDYPKGDASTGWNSVSRIIIEELPK
notes: also called #94-243; L94-K243-His
B2: human STOP-1 S31-K243 with C-terminal His tag, baculovirus expressed (ligand, not shown: small tags and cut ends)
chain: SEIPKGKQKAQLRQREVVDLYNGMCLQGPAGVPGRDGSPGANGIPGTPGIPGRDGFKGEKGECLRESFEESWTPNYKQCSWSSLNYGIDLGKIAECTFTKMRSNSALRVLFSGSLRLKCRNACCQRWYFTFNGAECSGPLPIEAIIYLDQGSPEMNSTINIHRTSSVEGLCEGIGAGLVDVAIWVGTCSDYPKGDASTGWNSVSRIIIEELPK
notes: Primarily trimeric by light scattering; also called S31-K243-His; S31humanSTOP-1-pAcGP67B
B3: human STOP-1 E89-K243 with C-terminal His tag, baculovirus expressed (ligand, not shown: small tags and cut ends)
chain: EKGECLRESFEESWTPNYKQCSWSSLNYGIDLGKIAECTFTKMRSNSALRVLFSGSLRLKCRNACCQRWYFTFNGAECSGPLPIEAIIYLDQGSPEMNSTINIHRTSSVEGLCEGIGAGLVDVAIWVGTCSDYPKGDASTGWNSVSRIIIEELPK
notes: A mix of trimeric and hexameric complexes by light scattering; also called E89-K243-His; E89humanSTOP-1-pAcGP67B
B4: S7 F(ab)'2 displayed on M13 phage (V0350-4-S7) (other)
light: SDIQMTQSPSSLSASVGDRVTITCRASQDVSTAVAWYQQKPGKAPKLLIYSASFLYSGVPSRFSGSGSGTDFTLTISSLQPEDFATYYCQQSYTTPPTFGQGTKVEIKRTVAAPSVFIFPPSDEQLKSGTASVVCLLNNFYPREAKVQWKVDNALQSGNSQESVTEQDSKDSTYSLSSTLTLSKADYEKHKVYACEVTHQGLSSPVTKSFNRGECGASSGMADPNRFRGKDLA
heavy: AYAEVQLVESGGGLVQPGGSLRLSCAASGFTISGSDIHWVRQAPGKGLEWVGRISPYGGNTNYADSVKGRFTISADTSKNTAYLQMNSLRAEDTAVYYCARVGGLKLLFDYWGQGTLVTVSSASTKGPSVFPLAPSSKSTSGGTAALGCLVKDYFPEPVTVSWNSGALTSGVHTFPAVLQSSGLYSLSSVVTVPSSSLGTQTYICNVNHKPSNTKVDKKVEPKSCDKTHG
notes: also called S7-F(ab)'2-phage; F(ab)'2-S7 phage
B5: S16 F(ab)'2 displayed on M13 phage (V0350-4-S16) (other)
light: B4 light
heavy: AYAEVQLVESGGGLVQPGGSLRLSCAASGFTITNSDIHWVRQAPGKGLEWVATIYPYGGYTYYADSVKGRFTISADTSKNTAYLQMNSLRAEDTAVYYCARGGGMDGYVMDYWGQGTLVTVSSASTKGPSVFPLAPSSKSTSGGTAALGCLVKDYFPEPVTVSWNSGALTSGVHTFPAVLQSSGLYSLSSVVTVPSSSLGTQTYICNVNHKPSNTKVDKKVEPKSCDKTHG
notes: also called S16-F(ab)'2-phage; F(ab)'2-S16 phage
B6: F5 F(ab)'2 displayed on M13 phage (V0350-4-F5) (other)
light: B4 light
heavy: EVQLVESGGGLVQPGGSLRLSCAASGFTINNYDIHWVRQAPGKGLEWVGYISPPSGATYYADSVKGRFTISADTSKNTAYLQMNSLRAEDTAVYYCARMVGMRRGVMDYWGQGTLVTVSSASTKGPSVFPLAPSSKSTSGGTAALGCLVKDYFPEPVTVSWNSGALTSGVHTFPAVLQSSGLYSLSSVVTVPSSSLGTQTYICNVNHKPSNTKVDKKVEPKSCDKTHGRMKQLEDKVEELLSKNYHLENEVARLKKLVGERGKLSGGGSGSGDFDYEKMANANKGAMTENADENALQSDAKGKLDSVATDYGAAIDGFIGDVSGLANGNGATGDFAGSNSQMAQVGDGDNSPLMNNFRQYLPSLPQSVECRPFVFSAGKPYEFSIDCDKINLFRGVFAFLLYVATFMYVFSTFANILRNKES
notes: also called F5-F(ab)'2-phage; F(ab)'2-F5 phage
B7: S4 Fab displayed on M13 phage (V0350-2b-S4) (Fab, V domains shown)
VH: EVQLVESGGGLVQPGGSLRLSCAASGFTISGSWIHWVRQAPGKGLEWVAWIAPYSGATDYADSVKGRFTISADTSKNTAYLQMNSLRAEDTAVYYCAREGGLYWVFDYWGQGTLVTVSS
VL: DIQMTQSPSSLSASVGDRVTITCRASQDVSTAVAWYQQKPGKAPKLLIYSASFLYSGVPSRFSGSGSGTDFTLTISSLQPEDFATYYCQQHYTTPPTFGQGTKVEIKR
notes: Fab on phage: the heavy chain (VH-CH1) is fused to M13 cP3 and the light chain carries a gD tag; also called S4-Fab phage; S4 (Fab)-phage
B8: S4 IgG (full-length human IgG1; LPG3-humankappaG6 and LPG4-humanHC-S4), expressed in CHO cells (antibody, V domains shown)
VH: B7 VH
VL: DIQMTQSPSSLSASVGDRVTITCRASQDVSTAVAWYQQKPGKAPKLLIYSASFLYSGVPSRFSGSGSGTDFTLTISSLQPEDFATYYCQQSYTTPPTFGQGTKVEIKR
notes: also called S4 antibody
B9: human STOP-1, full length, C-terminal 8xHis tag (h762HIP; M1-K243-His), expressed in CHO-psgb cells (ligand)
chain: SEIPKGKQKAQLRQREVVDLYNGMCLQGPAGVPGRDGSPGANGIPGTPGIPGRDGFKGEKGECLRESFEESWTPNYKQCSWSSLNYGIDLGKIAECTFTKMRSNSALRVLFSGSLRLKCRNACCQRWYFTFNGAECSGPLPIEAIIYLDQGSPEMNSTINIHRTSSVEGLCEGIGAGLVDVAIWVGTCSDYPKGDASTGWNSVSRIIIEELPKHHHHHHHH
notes: The secreted protein purified from medium lacks the signal peptide; Light scattering: about 58% hexamer and 42% trimer; also called UNQ762; full length form
B10: S9 Fab displayed on M13 phage (V0350-2b-S9) (Fab)
light: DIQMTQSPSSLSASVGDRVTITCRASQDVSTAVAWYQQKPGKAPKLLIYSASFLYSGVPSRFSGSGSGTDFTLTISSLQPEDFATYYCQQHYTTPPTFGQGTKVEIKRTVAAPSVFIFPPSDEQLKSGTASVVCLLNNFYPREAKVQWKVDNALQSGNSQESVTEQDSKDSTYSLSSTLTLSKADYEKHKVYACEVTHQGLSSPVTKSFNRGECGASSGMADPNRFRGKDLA
heavy: AYAEVQLVESGGGLVQPGGSLRLSCAASGFTISNYGIHWVRQAPGKGLEWVGRISPSNGSTYYADSVKGRFTISADTSKNTAYLQMNSLRAEDTAVYYCAKCSVRFAYWGQGTLVTVSSASTKGPSVFPLAPSSKSTSGGTAALGCLVKDYFPEPVTVSWNSGALTSGVHTFPAVLQSSGLYSLSSVVTVPSSSLGTQTYICNVNHKPSNTKVDKKVEPKSCDKTHL
notes: also called S9 (Fab)-phage
B11: human STOP-1 delta-THD (residues 1-54, 94-243, plus His), expressed in CHO-psgb cells (ligand)
chain: SEIPKGKQKAQLRQREVVDLYNGMLRESFEESWTPNYKQCSWSSLNYGIDLGKIAECTFTKMRSNSALRVLFSGSLRLKCRNACCQRWYFTFNGAECSGPLPIEAIIYLDQGSPEMNSTINIHRTSSVEGLCEGIGAGLVDVAIWVGTCSDYPKGDASTGWNSVSRIIIEELPKHHHHHHHH
notes: also called ΔTHDh762HIP; M1-M54 fused to L94-K243-His

Assays:
[1] = biological target: the molecule itself; assay: self-association; size exclusion chromatography with light scattering
Experimental: Full length STOP-1-HIS proteins or various truncations thereof were expressed in SF9 baculovirus-infected cells or CHO cells as described above. The proteins were purified from the media by using Ni-NTA agarose beads as discussed above. The baculoviral-expressed proteins S31-K243-His, E89-K243-His, or L94-K243-His were loaded onto an 8 mm×300 mm Shodex KW802.5 size exclusion column and eluted with 100 mM NH₄HCO₃, 200 mM NH₄Cl pH7.8 at a flow rate of 1 ml/ml. CHO-psgb expressed full length proteins were loaded onto an 8 mm×300 mm Shodex KW804 size exclusion column and eluted with 25 mM sodium phosphate, 500 mM NaCl at a flow rate of 1 ml/ml. CHO-psgb expressed proteins, M1-M54 fused to L94-K243-His, were loaded onto an 8 mm×300 mm Shodex KW802.5 size exclusion column and eluted with 25 mM sodium phosphate, 500 mM NaCl at a flow rate of 1 ml/ml.
The eluted protein was analyzed by an Agilent Model 1100 HPLC system with an Agilent multi wavelength detector (UV) connected to a Wyatt MiniDAWN laser light scattering (LS) instrument and a Wyatt Optilab differential refractometer (RI). The average molecular weight of the proteins or their aggregates in each peak was determined by selecting a peak and using the Zimm fitting method (Phillip J. Wyatt, (1993) Analytica Chimica Acta 272:1-40) with the Astra software package (Wyatt, USA). The percentage of aggregation was calculated from the integrated peak areas of the UV signal at 214 nm. See FIG. 6 and FIG. 7 for results.

[2] = biological target: B9; assay: solution competition phage ELISA (762 F/F): full length coated, phage pre-incubated with full length STOP-1 in solution; IC50 is the STOP-1 concentration
Experimental: (§1) The wells were blocked by adding 65 ul 1% BSA for 30 minutes followed by 40 ul 1% Tween20 for another 30 minutes. Next, the wells were washed with PBS—0.05% Tween20 5 times. Various dilutions of F(ab) or F(ab)′₂ phage down to 0.1 O.D./ml in ELISA buffer (PBS—0.1% BSA and 0.05% Tween20) were added to the wells for 15 minutes at room temperature. The wells were then washed with PBS—0.05% Tween20 at least three times. 75 ul of HRP-conjugated anti-M13 antibody (Amersham, 1/5000 dilution with ELISA buffer) per well was added and incubated at room temperature for 30 minutes. The wells were washed again with PBS—0.05% Tween20 at least five times. Next, 100 ul/well of a 1:1 ratio of 3,3′,5,5′-tetramethylbenzidine (TMB) Peroxidase substrate and Peroxidase Solution B (H₂O₂) ((Kirkegaard-Perry Laboratories (Gaithersburg, Md.)) was added to the well and incubated for 5 minutes at room temperature. The reaction was stopped by adding 100 ul 1M Phosphoric Acid (H3PO₄) ((Kirkegaard-Perry Laboratories (Gaithersburg, Md.)) to each well. The optical density of the color in each well was determined using a standard ELISA plate reader at 450 nm. The dilutions of phage were plotted against the O.D. readings.
(§2) Third, a competition ELISA was performed. 96-well Nunc Maxisorp plates were coated with full length or short form human STOP-1 (2 ug/ml in PBS) at 4° C. overnight or at room temperature for 2 hours. The wells were blocked by adding 65 ul 1% BSA for 30 minutes followed by 40 ul 1% Tween20 for another 30 minutes. The wells were washed with PBS—0.05% Tween20 5 times. […] The unbound phage was assayed by transferring 75 ul of the well mixture to second 96-well plate pre-coated with full length or short form human STOP-1 and incubating at room temperature for 15 minutes. The wells of the second plate were washed with PBS—0.5% Tween20 at least three times. 75 ul of HRP-conjugated anti-M13 antibody ( 1/5000 dilution with ELISA buffer) per well was added and incubated at room temperature for 30 minutes. The wells were washed again with PBS—0.05% Tween20 at least five times.

[3] = biological target: B9; assay: solution competition phage ELISA (762 S/F): short form coated, phage pre-incubated with full length STOP-1 in solution; IC50 is the STOP-1 concentration
Experimental: as §1, §2

[4] = biological target: B1; assay: solution competition phage ELISA (762 S/S): short form coated, phage pre-incubated with short form STOP-1 in solution; IC50 is the STOP-1 concentration
Experimental: as §1, §2

[5] = biological target: B1; assay: solution competition phage ELISA (762 S/S), short form coated and short form as competitor; ND = not detectable
Experimental: as §1
Third, a competition ELISA was performed. 96-well Nunc Maxisorp plates were coated with full length or short form human STOP-1 (2 ug/ml in PBS) at 4° C. overnight or at room temperature for 2 hours. […]

[6] = biological target: B9; assay: blocking ELISA, legend of FIG. 22
Experimental: First, 96-well Nunc Maxisorp plates were coated with full length human STOP-1 (2 ug/ml in PBS) at 4° C. overnight or at room temperature for 2 hours. The wells were blocked by adding 65 ul 1% BSA for 30 minutes followed by 40 ul 1% Tween20 for another 30 minutes. Next, the wells were washed with PBS—0.05% Tween20 5 times. Various concentrations of S4 IgG (in ELISA buffer) were incubated in the wells for 30 minutes at room temperature. Then, S4 (Fab)-phage, S7 (F(ab)′₂)-phage, S9 (Fab)-phage, S16 (F(ab)′₂)-phage or F5 (F(ab)′₂)-phage were added to different wells for 10 minutes at a concentration that would normally produce 90% binding capacity in the absence of the S4 IgG antibody. The wells were washed with PBS—0.05% Tween20 5 times.
Binding was quantified by adding 75 ul/well of horse radish peroxidase (HRP)-conjugated anti-M13 antibody in PBS plus 0.5% BSA and 0.05% Tween20 at room temperature for 30 minutes (Sidhu et al., supra). […] Next, 100 ul/well of a 1:1 ratio of 3,3′,5,5′-tetramethylbenzidine (TMB) Peroxidase substrate and Peroxidase Solution B (H₂O₂) ((Kirkegaard-Perry Laboratories (Gaithersburg, Md.)) was added to the well. The reaction was stopped by adding 100 ul 1M Phosphoric Acid (H₃PO₄) ((Kirkegaard-Perry Laboratories (Gaithersburg, Md.)) to each well. The OD of the yellow color in each well was determined using a standard ELISA plate reader at 450 nm.

B1: binds [1].

B2: binds [1].

B3: binds [1].

Work on B4 yielded an IC50 [2] of 0.0027 µM, an IC50 [3] of 0.0047 µM and an IC50 [4] of 0.035 µM.

For B5, the IC50 [2] was 0.032 µM and the IC50 [4] was 0.114 µM.

For B6, the IC50 [3] was 1 µM and the binding result [5] was “no binding (tested: 0.1 to 500 nM competitor)”.

B7 was tested, and the IC50 [2] was 0.0009 µM, the IC50 [3] was 0.719 µM and the IC50 [4] was 0.003 µM.

B8: binds [6].

B9: binds [1].

B10 was tested, and the IC50 [3] was 0.331 µM and the IC50 [4] was > 1 µM.

B11: binds [1].
